Measurements: the RNAGym collection of RNA variant scans (doi:10.1073/pnas.2313332121)
Variants at the floor of the assay were thinned out.

B1: TPR 5TU (parent)
chain: GGAUCUUCUCGAUCUAACAAAAAAGACAAAUCUGCCACAAAGCUUGAGAGCAUCUUCGGAUGCAGAGGCGGCAGCCUUCGGUGGCGCGAUAGCGCCAACGUUCUCAACUAUGACACGCAAAACGCGUGCUCCGUUGAAUGGAGUUUAUCAUG

Variants of: B1
Assay: polymerase ribozyme fitness, log enrichment relative to wild type (log ratio); higher = more active; in vitro selection for triplet polymerase activity
How it was run: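 For each subunit of a heterodimeric triplet polymerase ribozyme, a mutant library was built by PCR and transcribed, then taken through a single in vitro selection round in triplicate. Selection involved annealing to a biotinylated primer, the partner subunit and triplets, incubation frozen at −7 °C, gel excision of extended constructs, capture on streptavidin beads and RT-PCR. Genotypes were retained after Illumina sequencing of inputs and outputs only with ≥10 input reads and ≥1 read in each output. Fitness is defined as the logarithm of a genotype's enrichment relative to wild-type enrichment, using inverse-variance-weighted averages across replicates, with the logarithm taken to base 2.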

| Variant | polymerase ribozyme fitness (log ratio) |
| --- | --- |
| U31C C63G G83A C96U | 1.61 |
| C63U U104G | 0.272 |
| A16G A20C A22C G25A A37U A40C C75U C96U U130G A138U U145G | ≤ -4.2 |
| A28U G42C A52C G100C G117C | ≤ -4.2 |
| A29G A52C C85A U90C C95G A97G C118A A138C G143U | ≤ -4.2 |
| U135A A147U | -0.75 |
| U55A G126U | -0.31 |
| A73U G133U A147C | ≤ -4.2 |
| A47U C96A A97G A122C | -1.28 |
| A29C G92A G143C U146C | ≤ -4.2 |
| U45G G86U C87A | ≤ -4.2 |
| C18U A21C G141A | 0.0565 |
| G88C A115U | ≤ -4.2 |
| A24G G94C | -3.21 |
| U56A G128C | -2.8 |
| A17G C27G A66G A107G A115C | ≤ -4.2 |
| C35U C57U C95G C99G A120U | -3.85 |
| U9A G34A C57A C85A A91U | ≤ -4.2 |
| A16U A30C U44A G88A C105U U109A | ≤ -4.2 |
| A29U U31G A47C U61A G81A C95U G100U | ≤ -4.2 |
| C32A U53G C85U C96G G136C | ≤ -4.2 |

| Variant | polymerase ribozyme fitness (log ratio) |
| --- | --- |
| U6A G42C A49C A52C C75U C85U A91U | ≤ -4.2 |
| C57A A113U | -1.86 |
| A26G C43U U45A G59C G88A | ≤ -4.2 |
| A39U C54U U61A C93U A106U | ≤ -4.2 |
| C54U G94A | -0.351 |
| G94A C116G | 0.466 |
| C69U G136A A142U | -0.531 |
| A23U G48C C54A C75G G80C C96U G140A | ≤ -4.2 |
| A37C A60C G67C C76G | -3.82 |
| C35G U55G U61A C79G C93G A107G | ≤ -4.2 |
| A26U U104C G124C | -3.3 |
| C38G A40U U55A U56A C87U A89C | -3.99 |
| A3U A17C G94C | -0.825 |
| A52C U56C C57A G67A C85U A97U U146G U151G | ≤ -4.2 |
| C8A U15G C18U G58C C96G | -3.95 |
| A47U G48C G71C G94A C108G G124C G141A | ≤ -4.2 |
| U31G C54U U101C | -0.138 |
| A64U A121C G143A | ≤ -4.2 |
| A26U G59A C87G | ≤ -4.2 |
| C38U C51G U82C C96A A97U C125G | -3.55 |
| A52U C118U U146G | -3.62 |

| Variant | polymerase ribozyme fitness (log ratio) |
| --- | --- |
| A49G A52G U55A G67A A107U G133C A137G U139C | ≤ -4.2 |
| U44A G48C C87A A115U C125A | ≤ -4.2 |
| C10U G136A | -2.74 |
| C54A C57G | -3 |
| U55A C79G G81A | -4.18 |
| G80U G84A G126C C132U U145A | -3.25 |
| U31A U53A C95U A119G | -0.866 |
| G46C C105G | 1.29 |
| C10U C69U A147C U148G C149G | ≤ -4.2 |
| C96G A97U | -1.83 |
| G68A A91C A120G A147C | ≤ -4.2 |
| U56A C69G U148A | -4.17 |
| G84A A91U G126U G143U | ≤ -4.2 |
| C99U G136U | -2.25 |
| A39U G92C U127A | ≤ -4.2 |
| G58C G59C C96U C131A | -4.15 |
| C85G C125A U130C | -1.52 |
| U90C U104A | -4.11 |
| G83A U104G A122U U134G | -3.23 |
| G58U U82A G84U | -0.648 |
| C76U G143A | -1.28 |

| Variant | polymerase ribozyme fitness (log ratio) |
| --- | --- |
| U56A C57G A113C | -1.82 |
| U56G U78C C85A C123U | -1.43 |
| A23U U55A G128U | ≤ -4.2 |
| G50A G84A U101C G117C U146G | -0.884 |
| U82A C95A A97C C103U U134A | -3.46 |
| C38U U61A A106C G141A | -3.01 |
| U33G C35G A60G A107G | ≤ -4.2 |
| U15G U82C G94A | -1.01 |
| A19C G62C G84A A89G G117A | -2.57 |
| G48U C85U G140U | ≤ -4.2 |
| A16G U134G | -3.44 |
| A3G U56C C87A G92C | -2.12 |
| A21C A24G A39G C54U U78G G94A C129G U134G G140U U145G | ≤ -4.2 |
| G62C C85A | -3.75 |
| U4C A17G C18A C57A G59A G68A C96A A107U A121U C123G | ≤ -4.2 |
| A28C A41C C95A G128A G140C G143A | ≤ -4.2 |
| A40C G42A A49G G62C C93A | ≤ -4.2 |
| G84A U145A | 0.189 |
| A30G G92U A98U | -3.79 |
| C57A C96U G124A A150C | -3.99 |
| C96A G112C | -3.31 |
